According to paper PMC6454087:

Target: mouse rec1c sNASP variant protein (V281I, L282F) (mouse)
Experiment: BLI; Octet K2, 30 C; sNASP WT or variant immobilised on aminopropylsilane (APS) biosensors, histones in assay buffer at various concentrations (62.5 to 1,000 nM shown for H4), association 240 s; n = 4

B1: mouse histone H1a (natural protein)
chain: MSETAPVAQAASTATEKPAAAKKTKKPAKAAAPRKKPAGPSVSELIVQAVSSSKERSGVSLAALKKSLAAAGYDVEKNNSRIKLGLKSLVNKGTLVQTKGTGAAGSFKLNKKAESKAITTKVSVKAKASGAAKKPKKTAGAAAKKTVKTPKKPKKPAVSKKTSKSPKKPKVVKAKKVAKSPAKAKAVKPKASKAKVTKPKTPAKPKKAAPKKK
  Kd: 412 nM
  kon: 9590 M⁻¹ s⁻¹
